# Earlier results as cited in patent US20190360013.
# System: mEcSSB (monomeric E. coli SSB) (Escherichia coli)
# Conditions: CITED; at ion concentrations optimal for TdT; footprint 65 nt
substance,measurement,value
ssDNA (65-nt footprint),Kd,< 1 pM
